Reference: PMC3589492, “Intersubunit Ionic Interactions Stabilize the Nucleoside Diphosphate Kinase of Mycobacterium tuberculosis” (PLoS ONE, 2013)

Tests used:
[1] = target: the molecule itself; test: SEC; Superose 12 column, 50 mM Hepes pH 7.4, 150 mM sodium chloride, 0.4 mL/min, calibrated with molecular weight markers
[2] = target: the molecule itself; test: cell-based or functional assay

B1: Nucleoside diphosphate kinase of Mycobacterium tuberculosis, wild type (enzyme)
chain: MTERTLVLIKPDGIERQLIGEIISRIERKGLTIAALQLRTVSAELASQHYAEHEGKPFFGSLLEFITSGPVVAAIVEGTRAIAAVRQLAGGTDPVQAAAPGTIRGDFALETQFNLVHGSDSAESAQREIALWFPGA
notes: Nucleoside diphosphate kinase, Mycobacterium tuberculosis; No tag is mentioned; also called Mt-NDPK; wt Mt-NDPK
For B1, the “stoichiometry N” value [1] was 6 and the “c1/2 of inactivation/unfolding in urea (10 µg/mL, 16 h)” value [2] was about 5.2 M.
